In assay [1] the target is DLL3 on the surface of NCI-H209, SHP77, NCI-H526, NCI-H82 and NCI-H69 cells (human) (UniProt Q9NYJ7). The experiment in a line: flow cytometry, D-ADC55-1-8 (15 µg/mL) on SHP77 cells, anti-human IgG Alexa Fluor 488. On the technique in general: In flow cytometry, cells or beads pass a laser one at a time.
Assay [2] shares this target. The experiment in a line: flow cytometry, D-ADC55-1-8 (15 µg/mL) on NCI-H526 cells, anti-human IgG Alexa Fluor 488.
Assay [3] has the same target. Nature of the assay: flow cytometry, D-ADC55-1-8 (15 µg/mL) on NCI-H209 cells, anti-human IgG Alexa Fluor 488.
Assay [4] shares this target. The experiment in a line: flow cytometry, D-ADC55-1-8 (15 µg/mL) on NCI-H69 cells, anti-human IgG Alexa Fluor 488.
Assay [5] shares this target. Nature of the assay: flow cytometry, D-ADC55-1-8 (15 µg/mL) on NCI-H82 cells, anti-human IgG Alexa Fluor 488.

The values that follow come from patent EP4702992A1, “ANTIBODY-DRUG CONJUGATE” (priority 2023, dated 2024).

Sequence of DLL3 on the surface of NCI-H209, SHP77, NCI-H526, NCI-H82 and NCI-H69 cells (human) (Q9NYJ7 27-618): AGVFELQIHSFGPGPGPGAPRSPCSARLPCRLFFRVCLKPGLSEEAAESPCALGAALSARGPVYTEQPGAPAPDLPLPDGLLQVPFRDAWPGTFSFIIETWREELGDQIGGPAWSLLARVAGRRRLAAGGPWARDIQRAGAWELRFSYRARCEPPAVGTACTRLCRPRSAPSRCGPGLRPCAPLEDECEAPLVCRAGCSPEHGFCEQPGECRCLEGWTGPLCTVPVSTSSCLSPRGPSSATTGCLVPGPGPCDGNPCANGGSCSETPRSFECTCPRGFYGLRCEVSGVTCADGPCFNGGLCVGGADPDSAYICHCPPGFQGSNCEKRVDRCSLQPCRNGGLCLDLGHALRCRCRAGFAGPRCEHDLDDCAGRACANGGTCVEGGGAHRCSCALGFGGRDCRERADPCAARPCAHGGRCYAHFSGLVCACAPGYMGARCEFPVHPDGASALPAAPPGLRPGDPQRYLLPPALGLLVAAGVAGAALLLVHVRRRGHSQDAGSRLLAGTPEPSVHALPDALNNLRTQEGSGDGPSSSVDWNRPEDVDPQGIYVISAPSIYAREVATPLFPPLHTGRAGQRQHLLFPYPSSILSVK

B1: D-ADC55-1-8 (antibody, human IgG1, kappa, L234A L235A, V domains shown)
VH: QVQLVQSGAEVKKPGASVKVSCKASGYTFTDYYMKWVRQAPGQRLEWMGAFNLNNGDTFYNQKFKGRVTITRDTSASTAYMELSSLRSEDTAVYYCARDVYGYGDYWGQGTSVTVSS
VL: DIVMTQSPDSLAVSLGERATINCRASKSVSTSGYSYMHWYQQKPGQPPKLLIYLASNLDSGVPDRFSGSGSGTDFTLTISSLQAEDVAVYYCQHSRELPYTFGGGTKLEIKR
modifications: linker-drug LD55-1 (exatecan payload) conjugated to sulfhydryls of reduced interchain disulfide cysteines; average DAR 8.0 per antibody
On to B1, for which the DLL3+ % in assay [1] amounted to 35.8%; in assay [2], 29.1%; in assay [3], 44.4%; in assay [4], 5.29%; in assay [5] it was 11.2%. In addition, the Experimental well: negative control ratio in assay [1] was 3.23; in assay [2] it was 3.73; in assay [3] it was 7.73; in assay [4], 3.03; in assay [5] it was 5.02.
